Results published in patent US20250262210A1 (TRUSTEES OF COLUMBIA UNIVERSITY IN THE CITY OF NEW YORK, published 2025).

How the values were obtained:
Experiment in all cases: IP/MS, LZTR1 R810W-FLAG, U87
[1] = molecular target: KDM5C (human, UniProt P41229 1-1560, limits assumed)
Outline: (§1)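 Extracted peptides in 3% acetonitrile/0.1% formic acid ran on a 50 cm C18 column into an Orbitrap Fusion, with MaxQuant identification and spectral counting.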

[2] = molecular target: T1, RAPH1 (human, UniProt Q70E73 1-1250, limits assumed)
T1 sequence (looked up): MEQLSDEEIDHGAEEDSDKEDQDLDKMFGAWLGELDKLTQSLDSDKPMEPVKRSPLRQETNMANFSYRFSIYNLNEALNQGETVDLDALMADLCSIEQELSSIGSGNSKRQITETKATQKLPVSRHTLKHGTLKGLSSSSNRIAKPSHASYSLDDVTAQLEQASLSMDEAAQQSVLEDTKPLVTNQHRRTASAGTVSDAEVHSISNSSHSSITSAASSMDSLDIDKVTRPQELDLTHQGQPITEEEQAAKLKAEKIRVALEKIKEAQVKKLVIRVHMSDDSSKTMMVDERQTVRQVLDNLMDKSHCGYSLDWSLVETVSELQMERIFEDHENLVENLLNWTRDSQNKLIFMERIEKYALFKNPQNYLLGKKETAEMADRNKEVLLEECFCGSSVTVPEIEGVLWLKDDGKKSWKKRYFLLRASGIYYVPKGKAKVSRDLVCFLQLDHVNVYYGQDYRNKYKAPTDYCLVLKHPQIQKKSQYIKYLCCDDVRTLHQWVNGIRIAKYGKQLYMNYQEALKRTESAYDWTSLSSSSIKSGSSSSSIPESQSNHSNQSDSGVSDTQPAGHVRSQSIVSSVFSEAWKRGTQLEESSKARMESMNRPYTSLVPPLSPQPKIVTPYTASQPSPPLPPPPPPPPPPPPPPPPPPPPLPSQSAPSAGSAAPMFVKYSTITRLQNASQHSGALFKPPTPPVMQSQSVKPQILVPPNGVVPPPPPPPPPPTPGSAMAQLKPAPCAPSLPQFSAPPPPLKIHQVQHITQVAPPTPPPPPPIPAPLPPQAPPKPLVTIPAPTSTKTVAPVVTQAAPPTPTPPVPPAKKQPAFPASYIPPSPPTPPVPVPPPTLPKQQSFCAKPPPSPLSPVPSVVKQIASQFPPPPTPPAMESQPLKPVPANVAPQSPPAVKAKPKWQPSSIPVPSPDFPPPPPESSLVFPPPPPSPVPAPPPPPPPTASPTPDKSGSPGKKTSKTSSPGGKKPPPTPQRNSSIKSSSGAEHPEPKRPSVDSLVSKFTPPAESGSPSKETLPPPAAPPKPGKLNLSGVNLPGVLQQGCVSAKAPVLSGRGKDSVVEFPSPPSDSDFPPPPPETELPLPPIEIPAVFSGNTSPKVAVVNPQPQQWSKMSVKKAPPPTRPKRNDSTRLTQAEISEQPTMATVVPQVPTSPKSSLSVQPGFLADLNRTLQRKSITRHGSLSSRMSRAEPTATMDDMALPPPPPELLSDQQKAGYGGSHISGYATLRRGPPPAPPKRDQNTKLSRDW
Outline: as §1

[3] = molecular target: RUSC2 (human, UniProt Q8N2Y8 1-1516)
Sequence of RUSC2 (Q8N2Y8 whole entry): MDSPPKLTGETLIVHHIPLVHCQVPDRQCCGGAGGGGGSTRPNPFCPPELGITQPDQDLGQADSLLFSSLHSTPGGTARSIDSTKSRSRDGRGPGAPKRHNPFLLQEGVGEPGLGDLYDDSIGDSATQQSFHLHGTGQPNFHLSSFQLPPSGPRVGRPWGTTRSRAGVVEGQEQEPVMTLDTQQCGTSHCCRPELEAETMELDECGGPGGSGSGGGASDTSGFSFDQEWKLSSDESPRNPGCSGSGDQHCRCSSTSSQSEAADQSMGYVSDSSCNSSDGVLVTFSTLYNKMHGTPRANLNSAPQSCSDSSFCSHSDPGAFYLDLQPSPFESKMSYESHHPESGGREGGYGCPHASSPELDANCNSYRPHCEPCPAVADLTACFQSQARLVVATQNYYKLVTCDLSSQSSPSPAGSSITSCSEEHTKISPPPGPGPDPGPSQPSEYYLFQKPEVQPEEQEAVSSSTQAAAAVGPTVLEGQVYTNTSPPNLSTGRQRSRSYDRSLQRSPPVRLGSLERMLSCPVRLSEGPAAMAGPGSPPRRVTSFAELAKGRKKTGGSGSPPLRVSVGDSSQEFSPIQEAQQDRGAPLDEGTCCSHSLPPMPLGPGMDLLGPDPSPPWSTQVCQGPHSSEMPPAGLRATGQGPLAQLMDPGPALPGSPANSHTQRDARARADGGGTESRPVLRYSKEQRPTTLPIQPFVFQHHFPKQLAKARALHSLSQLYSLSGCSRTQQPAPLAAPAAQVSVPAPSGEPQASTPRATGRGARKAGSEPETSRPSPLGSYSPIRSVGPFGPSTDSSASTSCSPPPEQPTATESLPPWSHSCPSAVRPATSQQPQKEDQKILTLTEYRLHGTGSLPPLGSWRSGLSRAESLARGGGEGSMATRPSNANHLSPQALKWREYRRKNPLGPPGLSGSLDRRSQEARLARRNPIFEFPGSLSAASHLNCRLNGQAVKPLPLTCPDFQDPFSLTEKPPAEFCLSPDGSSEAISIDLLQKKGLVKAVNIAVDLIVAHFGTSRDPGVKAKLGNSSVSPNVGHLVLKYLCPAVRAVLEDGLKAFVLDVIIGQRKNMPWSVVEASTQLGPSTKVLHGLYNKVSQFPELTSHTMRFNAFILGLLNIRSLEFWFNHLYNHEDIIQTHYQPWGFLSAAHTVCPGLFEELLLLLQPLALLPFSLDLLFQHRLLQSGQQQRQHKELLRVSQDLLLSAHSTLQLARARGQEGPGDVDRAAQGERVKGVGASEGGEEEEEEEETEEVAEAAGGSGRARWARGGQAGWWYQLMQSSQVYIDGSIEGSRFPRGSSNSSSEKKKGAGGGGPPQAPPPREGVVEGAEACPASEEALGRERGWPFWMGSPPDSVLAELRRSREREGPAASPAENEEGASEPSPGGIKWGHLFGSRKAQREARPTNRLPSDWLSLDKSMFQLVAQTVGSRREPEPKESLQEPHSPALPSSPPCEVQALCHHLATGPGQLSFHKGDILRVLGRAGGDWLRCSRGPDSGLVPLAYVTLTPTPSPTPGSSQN
Outline: as §1

Measured: binding result

Sequence of KDM5C (P41229 whole entry, the tested form may be a part): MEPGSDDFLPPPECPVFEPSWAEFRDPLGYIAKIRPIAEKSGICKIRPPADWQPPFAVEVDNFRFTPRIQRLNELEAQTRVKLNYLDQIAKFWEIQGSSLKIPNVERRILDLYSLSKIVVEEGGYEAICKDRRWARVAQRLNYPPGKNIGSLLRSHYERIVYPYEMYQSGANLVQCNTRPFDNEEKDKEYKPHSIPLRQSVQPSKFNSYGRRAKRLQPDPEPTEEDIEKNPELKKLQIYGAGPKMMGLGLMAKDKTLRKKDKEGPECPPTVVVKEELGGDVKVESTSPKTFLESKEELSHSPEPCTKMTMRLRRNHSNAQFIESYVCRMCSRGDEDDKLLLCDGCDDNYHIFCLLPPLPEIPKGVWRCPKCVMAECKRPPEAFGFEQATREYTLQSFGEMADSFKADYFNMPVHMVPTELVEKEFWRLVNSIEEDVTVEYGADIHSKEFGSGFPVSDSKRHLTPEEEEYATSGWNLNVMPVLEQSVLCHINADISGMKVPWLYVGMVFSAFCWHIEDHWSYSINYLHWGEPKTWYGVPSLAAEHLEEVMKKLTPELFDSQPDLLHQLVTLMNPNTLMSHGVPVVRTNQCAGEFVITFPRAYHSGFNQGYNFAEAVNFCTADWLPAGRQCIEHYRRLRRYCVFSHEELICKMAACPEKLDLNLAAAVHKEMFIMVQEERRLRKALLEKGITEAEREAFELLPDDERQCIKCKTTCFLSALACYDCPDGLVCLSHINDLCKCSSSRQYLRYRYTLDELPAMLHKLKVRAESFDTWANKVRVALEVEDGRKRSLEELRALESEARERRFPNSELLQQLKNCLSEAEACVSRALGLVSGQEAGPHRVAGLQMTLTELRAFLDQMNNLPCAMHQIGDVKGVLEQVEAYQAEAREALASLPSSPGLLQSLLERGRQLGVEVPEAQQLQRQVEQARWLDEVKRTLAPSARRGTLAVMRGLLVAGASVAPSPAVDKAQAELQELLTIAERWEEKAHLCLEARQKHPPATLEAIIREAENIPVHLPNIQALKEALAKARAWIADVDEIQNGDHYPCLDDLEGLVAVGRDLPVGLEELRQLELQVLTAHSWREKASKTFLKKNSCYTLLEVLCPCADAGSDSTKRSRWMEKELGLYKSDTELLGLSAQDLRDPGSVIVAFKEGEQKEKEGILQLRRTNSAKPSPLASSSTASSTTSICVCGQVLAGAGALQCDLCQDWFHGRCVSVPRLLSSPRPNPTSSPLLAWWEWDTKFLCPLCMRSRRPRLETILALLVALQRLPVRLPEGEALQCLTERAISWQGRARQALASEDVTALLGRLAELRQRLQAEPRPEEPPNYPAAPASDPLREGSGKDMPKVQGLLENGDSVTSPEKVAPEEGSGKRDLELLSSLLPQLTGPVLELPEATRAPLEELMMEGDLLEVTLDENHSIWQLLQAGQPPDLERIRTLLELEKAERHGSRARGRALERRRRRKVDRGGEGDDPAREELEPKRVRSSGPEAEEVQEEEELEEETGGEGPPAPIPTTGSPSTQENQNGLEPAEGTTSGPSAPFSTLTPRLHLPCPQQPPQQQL

B1: LZTR1 R810W-FLAG (other, human, UniProt Q8N653 1-840, looked up)
chain: MAGPGSTGGQIGAAALAGGARSKVAPSVDFDHSCSDSVEYLTLNFGPFETVHRWRRLPPCDEFVGARRSKHTVVAYKDAIYVFGGDNGKTMLNDLLRFDVKDCSWCRAFTTGTPPAPRYHHSAVVYGSSMFVFGGYTGDIYSNSNLKNKNDLFEYKFATGQWTEWKIEGRLPVARSAHGATVYSDKLWIFAGYDGNARLNDMWTIGLQDRELTCWEEVAQSGEIPPSCCNFPVAVCRDKMFVFSGQSGAKITNNLFQFEFKDKTWTRIPTEHLLRGSPPPPQRRYGHTMVAFDRHLYVFGGAADNTLPNELHCYDVDFQTWEVVQPSSDSEVGGAEVPERACASEEVPTLTYEERVGFKKSRDVFGLDFGTTSAKQPTQPASELPSGRLFHAAAVISDAMYIFGGTVDNNIRSGEMYRFQFSCYPKCTLHEDYGRLWESRQFCDVEFVLGEKEECVQGHVAIVTARSRWLRRKITQARERLAQKLEQEAAPVPREAPGVAAGGARPPLLHVAIREAEARPFEVLMQFLYTDKIKYPRKGHVEDVLLIMDVYKLALSFQLCRLEQLCRQYIEASVDLQNVLVVCESAARLQLSQLKEHCLNFVVKESHFNQVIMMKEFERLSSPLIVEIVRRKQQPPPRTPLDQPVDIGTSLIQDMKAYLEGAGAEFCDITLLLDGHPRPAHKAILAARSSYFEAMFRSFMPEDGQVNISIGEMVPSRQAFESMLRYIYYGEVNMPPEDSLYLFAAPYYYGFYNNRLQAYCKQNLEMNVTVQNVLQILEAADKTQALDMKRHCLHIIVHQFTKVSKLPTLWSLSQQLLLDIIDSLASHISDKQCAELGADI
notes: Stably expressed in U87 cells by lentivirus; also called LZTR1-FLAG-R810W; LZTR1 RW; not shown: FLAG tag
binds: all assays above
